According to patent US20180244738A1:

Target: NuRD complex (nucleosome remodeling and deacetylase corepressor complex)
Test: cell-based or functional assay

“full-length SALL1, wild-type (transfected, pcDNA3.1-SALL1) (from UniProt Q9NSC2 1-1324)” showed a tumor cell senescence (SA-β-Gal+ cells) in transfected MCF-7 and E0771 cells, 3 days of 40%.
